Data taken from paper PMC4449185.

Legend:
[1] = pseudovirus neutralization (S4 Table); conditions: glycan lost; control: JR-FL parent
[2] = pseudovirus neutralization, global sensitivity (≥2 of 6 non-nAbs); conditions: glycan lost
[3] = TZM-bl pseudovirus neutralization ID50; conditions: glycan lost

Substance: JR-FL Env (gp160∆CT): N160A
- other: neutralisation sensitivity [1]: no change

Substance: PVO.4 Env: N197D
- other: neutralisation sensitivity ([2]; control: PVO.4 parent): no change
- other: neutralisation sensitivity ([3]; control: PVO.4 parent): no change

Substance: JR-FL Env (gp160∆CT): N332Q
- other: neutralisation sensitivity [1]: no change

Substance: ADA Env: N197D
- other: neutralisation sensitivity ([2]; control: ADA parent): no change

Substance: JR-CSF Env: N197D
- other: neutralisation sensitivity ([2]; control: JR-CSF parent): no change
- other: neutralisation sensitivity ([3]; control: JR-CSF parent): increases
